According to paper PMC5814282, “Biophysical studies and NMR structure of YAP2 WW domain - LATS1 PPxY motif complexes reveal the basis of their interaction” (Oncotarget, 2018):

Columns and labels:
[1] = molecular target: WW12 (YAP2, both WW domains); assay: ITC, WW12 versus PY12; assay type: binding, human; details: 25°C, 2 mM DTT, 2 mM EDTA
Description: ITC experiments were performed using the MicroCal VP-ITC titration calorimeter (MicroCal-Malvern). […] The proteins and peptides used were prepared in the same buffer containing 20 mM Tris-HCl pH 7.0 and 100 mM NaCl. Protein concentrations varying from 20 to 70 μM were titrated against peptide concentrations ranging from 0.5 to 1.8 mM at 25°C. The peptide samples were also injected into buffer as a reference to estimate the heat of dilution. In the case of WW12 vs PY12, the buffer used was 20 mM Tris-HCl pH 7.0, 100 mM NaCl, 3% glycerol, 2 mM DTT and 2 mM EDTA. All samples were degassed and spun before the experiment. The binding isotherms were analyzed employing a model that considered a single ligand binding site implemented in Origin 7 (OriginLab).

WW12 = assay: Co-expression, affinity and gel filtration chromatography of WW12-PY12; assay type: binding, human; details: WW12 and PY12 co-expressed in E. coli
Description: Cells were harvested by spinning at 4,000 g for 20 min and lysed by sonication in buffer containing 50 mM Tris-HCl pH 7.0, 200 mM NaCl, 5% glycerol, 2 mM DTT, 0.5% Triton X-100 and 1mM PMSF. […] The GST tag was cleaved overnight using PreScission Protease. In the case of WW12-PY12 complex, an additional Ni-NTA chromatography step was performed, as PY12 contained a His-tag. The eluted proteins were further purified using FPLC Superdex 75 gel filtration in buffer containing 20 mM Tris-HCl pH 7.0, 100 mM NaCl, 5% glycerol and 2 mM DTT. The purity and quality of the purified proteins were assessed using SDS polyacrylamide gel electrophoresis (SDS-PAGE) and dynamic light scattering (DLS).

- Kd ([1]; ITC VP-ITC, 20 mM Tris-HCl pH 7.0, 100 mM NaCl, 3% glycerol, single ligand binding site model): 9.6 µM
B1: PY12: LATS1 region PY12 (containing both PPxY motifs; aa 361-567) (protein)
chain: NVVPAGTVNRQPPPPYPLTAANGQSPSALQTGGSAAPSSYTNGSIPQSMMVPNRNSHNMELYNISVPGLQTNWPQSSSAPAQSSPSSGHEIPTWQPNIPVRSNSFNNPLGNRASHSANSQPSATTVTAITPAPIQQPVKSMRVLKPELQTALAPTHPSWIPQPIQTVQPSPFPEGTASNVTVMPPVAEAPNYQGPPPPYPKHLLHQN
modifications: left off: His-tag, end not stated, kept
- -TΔS ([1]; ITC, pH 7.0, 3% glycerol): 33.4 kcal/mol
- ΔG ([1]; ITC, pH 7.0, 3% glycerol): -6.8 kcal/mol
- ΔH ([1]; ITC, pH 7.0, 3% glycerol): -40.2 kcal/mol
- complex formation (WW12): formed a tight complex
